Results as given in patent US20200239586A1 (LA TROBE UNIVERSITY, published 2020).

How the values were obtained:
[1] = target: phage expressed hFn14 mutant D51A (human, UniProt Q9NP84 28-77); test: phage ELISA (Method 2): antibody coated on the plate, 10-fold dilutions of phage displaying hFn14 D51A; biotin anti-M13 antibody, streptavidin-HRP, TMB, OD 450 nm; x axis = dilution of phage
Excerpt: ELISAs showing the reactivity of mutant hFn14 phage constructs with the anti-Fn14 monoclonal antibodies CRCBT-06-001, CRCBT-06-002, CRCBT-06-004 compared to ITEM-1 and ITEM-4. Binding was detected using Biotin-conjugated anti-M13-phage monoclonal antibody followed by HRP-conjugated Streptavidin and TMB substrate. Optical density at 450 nm was quantified using a Spectramax spectrophotometer. Error bars for each dilution represent the standard deviation of duplicate assays. FIG. 28A L46A, FIG. 28B D51A and FIG. 28C D62A. In all cases error bars represent the standard deviation. X axis=dilution of phage. Methods according to Epitope mapping using phage expressed Fn14—Method 2.
The wells of Maxisorp immunoplates (Nunc) were coated overnight at 4° C. with the target monoclonal antibodies or recombinant Tweak-Fc at a concentration of 1.5 μg/ml in PBS. mAb 5G8 was used as a negative control for ELISA plates coated with tested antibodies. […] 10-fold serial dilutions of phage were made using PBS solution and phage dilutions were added to the coated, blocked ELISA plates for 1 hour, shaking at room temperature. […]
Method A: HRP-conjugated anti-M13-phage antibody (GE Healthcare) at a 1/5000 dilution in PBS was then added to the wells of the ELISA plates for 1 hour, shaking at room temperature. […] Optical density at 450 nm was quantified using a Spectramax absorbance spectrophotometer.

[2] = target: T1, Histidine tagged mouse Fn14 extracellular domain (mouse, UniProt Q9CR75 28-80); test: ELISA with purified His-tagged mouse Fn14; x axis 'Log (c)' without unit, µg/ml by the legend
T1 construct: extracellular domain; also called mFn14; not shown: (His)6 tag from pET-15b
T1 sequence (looked up): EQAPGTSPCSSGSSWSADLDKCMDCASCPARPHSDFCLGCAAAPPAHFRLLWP

[3] = target: T2, synthetic peptide Sub-domain 2 Cys 3&6 ΔS (human, not fully specified; biotin on the added C-terminal lysine); test: peptide ELISA: biotinylated synthetic peptide on neutravidin plate, antibody titrated (legend: 0.1-0.0001 µg/ml; axis 'Log (c)'), anti-mouse HRP, TMB, OD 450 nm
T2 construct: also called sub-domain 2 cys3&6ΔS mutant
T2 peptide: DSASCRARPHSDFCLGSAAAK

[4] = target: phage-displayed hFn14 extracellular domain mutant D62E (human, UniProt Q9NP84 28-77); test: phage ELISA, antibody on plate, 10-fold phage dilutions
Excerpt: (§1) ELISAs showing the reactivity of the repertoire of hFn14 phage constructs with the anti-Fn14 monoclonal antibodies CRCBT-06-001, CRCBT-06-002, CRCBT-06-003 and CRCBT-06-004. Binding was detected using HRP-conjugated anti-M13-phage polyclonal IgG and TMB substrate. Optical density at 450 nm was quantified using a Spectramax spectrophotometer. Error bars for each dilution represent the standard deviation of duplicate assays. In this figure, reference to “FN14 Ectodomain” is a reference to the extracellular domain of hFn14. Methods according to Epitope mapping using phage expressed Fn14—Method 1.
(§2) The wells of Maxisorp immunoplates (Nunc) were coated overnight at 4° C. with the target monoclonal antibodies or recombinant Tweak-Fc at a concentration of 2 μg/mL in PBS. MAb 5G8 was used as a negative control for ELISA plates coated with tested antibodies. Recombinant Fc alone was used as a negative control for ELISA plates coated with recombinant Tweak-Fc. […] 10-fold serial dilutions of phage were made using 5% skim milk/PBS solution in 2 ml-well microtiter plates and phage dilutions were added to the coated, blocked ELISA plates for 1 hr, with vigorous shaking at room temperature. Phage were subsequently removed from the wells and the ELISA plates were washed 4× with PBS/0.05% Tween 20. HRP-conjugated anti-M13-phage polyclonal IgG diluted in PBS was then added to the wells of the ELISA plates for 1 hr, with vigorous shaking at room temperature. The antibody solution was then removed from the wells and the ELISA plates were washed 5× with PBS/0.05% Tween 20. ELISAs were developed using TMB substrate and the reaction was stopped using 2 M H₂SO₄ solution. Optical density at 450 nm was quantified using a Spectramax absorbance spectrophotometer.

[5] = target: phage-displayed hFn14 extracellular domain mutant D45A (human, UniProt Q9NP84 28-77); test: as above
Excerpt: as §1, §2

[6] = target: phage-displayed hFn14 extracellular domain mutant K48A (human, UniProt Q9NP84 28-77); test: as above
Excerpt: as §1, §2

[7] = target: phage-displayed hFn14 extracellular domain mutant M50A (human, UniProt Q9NP84 28-77); test: as above
Excerpt: as §1, §2

[8] = target: T3, His tagged hFn14 extracellular region mutant R56P (human, UniProt Q9NP84 28-77); test: ELISA with purified His-tagged hFn14 R56P; x axis 'Log (c)' without unit, µg/ml by the legend
T3 construct: also called R56P mutant; not shown: (His)6 tag

Measured: binding result

Sequence of phage-displayed hFn14 extracellular domain mutant K48A (Q9NP84 28-77 K48A): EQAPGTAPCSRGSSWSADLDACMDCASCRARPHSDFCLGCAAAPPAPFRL
Sequence of phage-displayed hFn14 extracellular domain mutant D62E (Q9NP84 28-77 D62E): as the sequence (Q9NP84 28-77 K48A) above, with A21K, D35E counted along it
Sequence of phage-displayed hFn14 extracellular domain mutant D45A (Q9NP84 28-77 D45A): as the sequence (Q9NP84 28-77 K48A) above, with D18A, A21K counted along it
Sequence of phage-displayed hFn14 extracellular domain mutant M50A (Q9NP84 28-77 M50A): as the sequence (Q9NP84 28-77 K48A) above, with A21K, M23A counted along it
Sequence of phage expressed hFn14 mutant D51A (Q9NP84 28-77 D51A): as the sequence (Q9NP84 28-77 K48A) above, with A21K, D24A counted along it

B1: CRCBT-06-001 (antibody, IgG2b, V domains shown)
VH: QVQLQQSGGGLVQPGGSMKLSCIASGFTFSSYWMSWVRQSPEKGLEWVAEIRSKSDNYATHYAESVKGKFTISRDDSKSRFFLQMNNLRAEDTGIYYCSSTYADYFHYWGQGTDLTVSS
VL: DIVMTQTPASLAVSLGQRATISCRASQSVSTSTYSYMHWYQQKPGQPPKLLIKYASSLESGVPARFSGSGSGTDFTLNIHPVEEDDTATYYCQHSWEIPYTFGGGTKLEIKR
binds: [1] | [2] | [3] | [4] | [5] | [6] | [7] | [8]

B2: CRCBT-06-002 (antibody, IgG1, V domains shown)
VH: EVKLQQSGGGLVQPGGSMKLSCVASGFTFSYYWMNWVRQSPEQGLEWIAEIRLQSNDYPTHYAESVKGRFTISRDDSKNSVYLQMNNLRPEDTGIYYCACRYADYFDHWGQGTTLTVSS
VL: DTVLTQSPASLVVSLGQRATISCRASQSVSTSDYSYIHWYQQKPGQPPKFLIKYASNRDSGVPARFSGSGSGTDFTLNIHPVEEDDTAIYYCQHSWEIPPTFGAGTKLELQR
binds: [1] | [2] | [3] | [4] | [5] | [6] | [7] | [8]
